From the DeepSol protein solubility set

test: soluble on expression in E. coli; label from the status in PepcDB or PDB records

Row | Sequence | soluble on expression in E. coli
1 | MAHHHHHHMEYDDGEYGRESSVEALAQSQESEQVASAASGLPESSSSAGSAKPSFRILSTRQLAQWARVRHQMDVGCSGNTVWTVSSAKHGNGVLHLMRHHDLNNFWQSDGVLPHVIRIQLGQLTPVEAMAVYVNSAVDQSYSPRVIRVKAGTHNGDMTEVAKADIGAGQECGWVLITLREMAGDDGDDVEGGGPNDGGGGVAAGVRIQHQQQEVRPRQQDGGAPEGGAASSYSPPIPYSEVAAALGHGNHATPSSAGVQTSAAMPRIPRSTSNPADRWLWCTLIDIYICENQFNGRDCHLRGIRLMGPRYEELERVSNADATGTVTCARPLQGGEPLEGTADELQLR | not soluble
2 | MAGDPMNEQSQAKSPDTLRAMVAGTLANFQHPTLKHNLTTLKALHHVAWMDDTLHVELVMPFVWNSAFEVLKEQCSADLLRITGAKAIDWKLSYNIATLKRVKNQPGINGVKNIIAVSSGKGGVGKSSTAVNLALALAAEGAKVGVLDADIYGPSIPTMLGAEDQRPTSPDGTHMAPIMSHGLATNSIGYLVTDDNAMVWRGPMASKALMQMLQETLWPDLDYLVLDMPPGTGDIQLTLAQNIPVTGAVVVTTPQDIALIDAKKGIVMFEKVEVPVLGIVENMSMHICSNCGHHEPIFGTGGAQKLAEKYHTQLLGQMPLHISLREDLDRGTPTVVSRPESEFTAIYRELADRVAAQLYWQGEVIPGEIAFRAVLEHHHHHH | soluble
3 | MHHHHHHSSGVDLGTENLYFQSNAMKKVLIVFGTRPEAIKMAPLVQQLCQDNRFVAKVCVTGQHREMLDQVLELFSITPDFDLNIMEPGQTLNGVTSKILLGMQQVLSSEQPDVVLVHGDTATTFAASLAAYYQQIPVGHVEAGLRTGNIYSPWPEEGNRKLTAALTQYHFAPTDTSRANLLQENYNAENIFVTGNTVIDALLAVREKIHTDMDLQATLESQFPMLDASKKLILVTGHRRESFGGGFERICQALITTAEQHPECQILYPVHLNPNVREPVNKLLKGVSNIVLIEPQQYLPFVYLMDRAHIILTDSGGIQEEAPSLGKPVLVMRETTERPEAVAAGTVKLVGTNQQQICDALSLLLTDPQAYQAMSQAHNPYGDGKACQRIADILAK | soluble
4 | MNALIVPQWPLPKGVAACSSTRIGGVSLSPYDSLNLGAHCGDNPEHVEENRKRLFAAGNLPSKPVWLEQVHGKNVLRLTGEPYASKRADASYSNTPGTVCAVMTADCLPVLFCNREGTEVAAAHAGWRGLCEGVLEETVTCFADKPENIIAWLGPAIGPAAFEVGPEVRDAFLAKDAQADSAFLPHGEKFLADIYQLARQRLANTGVEHVYGGDRCTFSESETFFSYRRDKTTGRMASFIWLI | soluble
5 | MNTFGTRLKFTSFGESHGVAVGCIIDGMPAGVKFDEEFLQNELDKRKGGSKFATPRKESDKAQVLSGVFEGYTTGHPIAIVVFNENAHSKDYDNLKDLFRPAHADFTYFYKYGIRDHRGGGRSSARESVARVAGGAVAAMLLREFDICVQSGVFGVGTFVSNLKEEEFDFEFAKKSEIFCLDPKLESDFKNEILNARNSKDSVGAAVFTKVSGMLIGLGEVLYDKLDSKLAHALMGINAVKAVEIGEGINASKMRGSCNNDALKDGKFLSNHSGGILGGISNGENLILKTYFKPTPSIFAKQESIDKFGNNLKFELKGRHDPCVGVRGSVVASAMVRLVLADCLLLNASANLNNLKNAYGLKLEHHHHHH | soluble
6 | MAIINGSQYIERVDNLQSNVWINGERVVGKLSEHPAFAGAIRSQARLYDAQHDPTKQPVLTFRTSTGELAGAAFLRPATKEDLEHRRLAFQEWARLTAGMMGRSPDYMNHRRDGARLGR | not soluble
7 | MGSDKIHHHHHHMLPQGVKDQKYDQNENIPVSWNCEESDQNHNKQKRNGSPAEGKAQKGGKETQNVLEDVVPEDAEKGKNIDHSTTPMTITLSGTSRVTFSRKYSSSRPATVPMNRYSLKATFHFSLSKYTFQPVTSMSSITESLGTRSPLTTPTTDSRSFSTLTFSTKSSENTLITFEIGPFSTTIPRNLFSSGSRTMAPSSASPRM | not soluble
8 | MKANSDELQSFVSVVDSGSISAAAEQMGLTASAVSRTLSRLEHKLGTTLLNRTTRRMELTEEGRYFLDQARQILQQMEALEERLALRRQSPAGRLRINAASPFMLHAVVPHIGEFRRLYPDIQLELNTNDLIIDLLEQRTDVAIRIGALSDSTLHARPLGASRLHILASPEYLARHGTPASIEGLRGHTLLGFTQPEHLNRWPVVHADGDRLEIQPDISASSGETLRQLALSHQGIACLASFMTDRDIQDGRLVPLFAEQMSEYRQPIHAVYYRNSQLALRIQCFLDFIQQRLGA | not soluble
9 | MGSDKIHHHHHHENLYFQGMNIETLMIKNPPILSKEDRLGSAFKKINEGGIGRIIVANEKIEGLLTTRDLLSTVESYCKDSCSQGDLYHISTTPIIDYMTPNPVTVYNTSDEFTAINIMVTRNFGSLPVVDINDKPVGIVTEREFLLLYKDLDEIFPVKVFMSTKVQTIYKEVRLDQAVKLMLRRGFRRLPVIDDDNKVVGIVTVVNAIKQLAKAVDKLDPDYFYGKVVKDVMVTNLVTIDELASVNRAAAEMIVKRIGSLLILNKDNTIRGIITERDLLIALHHILVMEKFKEKL | soluble
10 | MGSDKIHHHHHHMERPTGVYFQTMTMKQIRERLKQCDLIIIPVGSTENHGPNAPTGEDTFLVTRMAEQVALKTGCTVAEPIWYGYHPYHHIGMPGTVPVKDEAFIDYLVSVIAGFWNTGFRKQILLNGHGQEFVIPIAIHKFAKIFQVPAIIINLNWYHAIQDKFKTKEEGGPYETPFIHADEVETSWSLALFPEFMHQEWAVDTEPKGFLPEGHIDKAGNLLHRPIAWYGHVGGGPIEVVAYPEGVVGKATLASAEKAKEGVEALLDYLEKLVRDIMERFPAGKLPPAEMLSQRPKEELEALTKEPLTEGWRNLYTAGNLWG | not soluble
11 | MMEMITIKPGKITVQANPNMPKEVAELFRKQHYEIVGRHSGVKLCHWLKKSLTEGRFCYKQKFYGIHSHRCLQMTPVLAWCTHNCIFCWRPMENFLGTELPQPWDDPAFIVEESIKAQRKLLIGYKGNPKVDKKKFEEAWNPTHAAISLSGEPMLYPYMGDLVEEFHKRGFTTFIVTNGTIPERLEEMIKEDKLPTQLYVSITAPDIETYNSVNIPMIPDGWERILRFLELMRDLPTRTVVRLTLVKGENMHSPEKYAKLILKARPMFVEAKAYMFVGYSRNRLTINNMPSHQDIREFAEALVKHLPGYHIEDEYEPSRVVLIMRDDVDPQGTGVEGRFIKHLEHHHHHH | not soluble
12 | GSHMAKTLKDLDGWQVIITDDQGRVIDDNNRRRSRKRGGENVFLKRISDGLSFGKGESVIFNDNVTETYSVYLIHEIRLNTLNNVVEIWVFSYLRWFELKPKLYYEQFRPDLIKEDHPLEFYKDKFFNEVNKSELYLTAELSEIWLKDFIAVGQILPESQWNDSSIDKIEDRDFLVRYACEPTAEKFVPIDIFQIIRRVKEMEPKQSDEYLKRVSVPVSGQKTNRQVMHKMG | soluble
13 | MGSDKIHHHHHHADVIVPEQPVPVVAVPAFSWAGFYLGGQVGNFSSKTALSYLGDEKTGKWTPVKKEFVPKLSGFVGGIYAGSNFDINNGFIIGIDTDVMWSGKKNTKIITWPEVPPEVSSEKKVERVSVGTNQDTSAEVTNGALSHTLKQKWFGATRVKVGFVVDRMMPYIAGGVAYTQLQNIFEKEADKTKKAIDISNVIHDEKKTMVGYTLGGGIDFAMTDNVIVRAEYRYSDYGKKKFADEKIEMRYKTNDFRVGVAYKF | not soluble
14 | GSRSEPAKVVDIRIDTSAERKPISPYIYGSNQELDATVTAKRFGGNRTTGYNWENNFSNAGSDWLHYSDTYLLEDGGVPKGEWSTPASVVTTFHDKALSKNVPYTLITLQAAGYVSADGNGPVSQEETAPSSRWKEVKFEKGAPFSLTPDTEDDYVYMDEFVNYLVNKYGNASTPTGIKGYSIDNEPALWSHTHPRIHPDNVTAKELIEKSVALSKAVKKVDPYAEIFGPALYGFAAYETLQSAPDWGTEGEGYRWFIDYYLDKMKKASDEEGKRLLDVLDVHWYPEARGGGERICFGADPRNIETNKARLQAPRTLWDPTYIEDSWIGQWKKDFLPILPNLLDSIEKYYPGTKLAITEYDYGGGNHITGGIAQADVLGIFGKYGVYLATFWGDASNNYTEAGINLYTNYDGKGGKFGDTSVKCETSDIEVSSAYASIVGEDDSKLHIILLNKNYDQPTTFNFSIDSSKNYTIGNVWAFDRGSSNITQRTPIVNIKDNTFTYTVPALTACHIVLEAAEP | soluble
15 | MSSLKGKRIGFGLTGSHCTYEAVFPQIEELVNEGAEVRPVVTFNVKSTNTRFGEGAEWVKKIEDLTGYEAIDSIVKAEPLGPKLPLDCMVIAPLTGNSMSKLANAMTDSPVLMAAKATIRNNRPVVLGISTNDALGLNGTNLMRLMSTKNIFFIPFGQDDPFKKPNSMVAKMDLLPQTIEKALMHQQLQPILVENYQGNDLEHHHHHH | not soluble
16 | MRIGVIMGGVSSEKQVSIMTGNEMIANLDKNKYEIVPITLNEKMDLIEKAKDIDFALLALHGKYGEDGTVQGTLESLGIPYSGSNMLSSGICMDKNISKKILRYEGIETPDWIELTKMEDLNFDELDKLGFPLVVKPNSGGSSVGVKIVYDKDELISMLETVFEWDSEVVIEKYIKGEEITCSIFDGKQLPIISIRHAAEFFDYNAKYDDASTIEEVIELPAELKERVNKASLACYKALKCSVYARVDMMVKDGIPYVMEVNTLPGMTQASLLPKSADAAGIHYSKLLDMIIETSLRVRKEEGF | not soluble
17 | MGSDKIHHHHHHMKILPVISTKGGEGKSTQAANLAGFFADAGLKTLLIDGDYSQPTASSIYALEHEAPFGLFELLMQTTDLNQPESIISRTAIPNLDLIISNDPDDRLPTAMLHAPDGRMRLKNILQHQSFQSYDVIMIDSKGAAGVMVELVVLAATENVVGVIKPILPDVREFMRGTVRLMSRLLALQAYGIQIPDIKILANCVENTSLDRKTLEELGNIVSEKKYLQSESINISILETKIDQLEVYKRGHAFGQPVHRLEYVTDRKSAAAAVTMHSLACELFPHWKDKFDSVLRNQTGAGEVASV | not soluble
18 | MSAYKTVVVGTDGSDSSMRAVDRAAQIAGADAKLIIASAYLPQHEDARAADILKDESYKVTGTAPIYEILHDAKERAHNAGAKNVEERPIVGAPVDALVNLADEEKADLLVVGNVGLSTIAGRLLGSVPANVSRRAKVDVLIVHTT | not soluble
19 | GSHMAPGFTISFVNKTIIVTGGNRGIGLAFTRAVAAAGANVAVIYRSAADAVEVTEKVGKEFGVKTKAYQCDVSNTDIVTKTIQQIDADLGPISGLIANAGVSVVKPATELTHEDFAFVYDVNVFGVFNTCRAVAKLWLQKQQKGSIVVTSSMSSQIINQSSLNGSLTQVFYNSSKAACSNLVKGLAAEWASAGIRVNALSPGYVNTDQTAHMDKKIRDHQASNIPLNRFAQPEEMTGQAILLLSDHATYMTGGEYFIDGGQLIW | soluble
20 | MAHHHHHHMYGGNFSIPEFILKHEKYEKERLKIKRNKYLKRNIYKDNYSFIYFIFLHNINEHVEITTNNFDLLKGQLEELKKNTNNHIKGIILKNVIKSNNNNYSYFSKLYIPITNIYTCMPDNICSREKNKNPESKPFCDLIVSGYKNQMMNKIYEKFKKLGNQYV | not soluble
